Key:
Test in all cases: co-expression in E. coli (pETDuet-1, N-6 His on the -1 fragment, -2 fragment untagged); Ni-NTA purification
[1] = target: T1, IPD082Hc-2, C-terminal fragment of homolog IPD082Hc (Pseudomonas corrugata)
T1 chain: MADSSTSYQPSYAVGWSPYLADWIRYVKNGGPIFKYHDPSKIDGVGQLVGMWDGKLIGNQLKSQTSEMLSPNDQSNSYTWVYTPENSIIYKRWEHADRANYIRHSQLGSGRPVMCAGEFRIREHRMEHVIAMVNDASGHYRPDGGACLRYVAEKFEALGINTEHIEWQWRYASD
Text: (§1) The IPD082Aa gene (SEQ ID NO: 1) was amplified by PCR using genomic DNA isolated from strain SSP446D7 using forward primer […] (SEQ ID NO: 59) and reverse primer […] (SEQ ID NO: 60). The resulting PCR product was DNA sequence verified and subcloned into pET16B vector with an N-terminal His-10 tag, and into pET24a vector with C-terminal His-10 tag or without tag. The plasmid DNA, containing the IPD082Aa gene insert, was transformed into competent C41 E. coli cells for recombinant protein expression. E. coli cells were grown at 37° C. with carbenicillin or kanamycin selection to OD₆₀₀ equal to 0.7-0.8 and then 1 mM ITPG was added and further grown at 16° C. for 16 hours to induce protein expression. The E. coli expressed His-tagged proteins were purified by immobilized metal ion chromatography using Ni-NTA agarose (Qiagen, Germany) according to the manufacturer's protocols. Other IPD082 homologs were expressed in a similar manner except the gene sequences were synthesized.
(§2) The polynucleotides, SEQ ID NO: 33 and SEQ ID NO: 35 respectively, encoding the 38.2 kDa N-terminal fragment (IPD082Aa-1—SEQ ID NO: 34) and 20.5 kDa C-terminal fragment (IPD082Aa-2—SEQ ID NO: 36) of IPD082Aa, were also co-expressed (FIG. 11) in a pETDuet™-1 vector (EMD Millipore, a Life Science business of Merck KGaA, Frankfurter StraBe 250, 64293, Darmstadt, Germany). Similarly polynucleotides encoding the C-terminal fragments of the IPD082 homologs: IPD082Hb-2 (SEQ ID NO: 37); IPD082Ia-2 (SEQ ID NO: 39); IPD082Ic-2 (SEQ ID NO: 41); IPD082Ie-2 (SEQ ID NO: 43); IPD082Ib-2 (SEQ ID NO: 45); IPD082Hd-2 (SEQ ID NO: 47); and IPD082Hc-2 (SEQ ID NO: 49), were cloned as chimeric fusions with IPD082Aa-2 (SEQ ID NO: 35) in the pETDuet™-1 vector containing IPD082Aa-1 polynucleotide (SEQ ID NO: 33).

[2] = target: T2, IPD082Ia-2, C-terminal fragment of homolog IPD082Ia (Pseudomonas monteilii)
T2 chain: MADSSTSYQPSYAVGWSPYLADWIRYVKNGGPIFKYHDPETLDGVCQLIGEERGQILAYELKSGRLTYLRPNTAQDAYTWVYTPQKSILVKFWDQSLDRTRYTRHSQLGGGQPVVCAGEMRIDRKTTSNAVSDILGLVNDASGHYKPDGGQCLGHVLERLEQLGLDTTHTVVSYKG
Text: as §1, §2

[3] = target: T3, IPD082Ib-2, C-terminal fragment of homolog IPD082Ib (Pseudomonas sp VLB120)
T3 chain: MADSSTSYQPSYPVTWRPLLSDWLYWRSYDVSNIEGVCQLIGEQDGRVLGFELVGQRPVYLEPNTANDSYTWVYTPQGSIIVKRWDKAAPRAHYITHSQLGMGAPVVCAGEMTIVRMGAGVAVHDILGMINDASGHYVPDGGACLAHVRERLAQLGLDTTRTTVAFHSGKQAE
Text: as §1, §2

[4] = target: T4, IPD082Ic-2, C-terminal fragment of homolog IPD082Ic (Pseudomonas sp. S16-2)
T4 chain: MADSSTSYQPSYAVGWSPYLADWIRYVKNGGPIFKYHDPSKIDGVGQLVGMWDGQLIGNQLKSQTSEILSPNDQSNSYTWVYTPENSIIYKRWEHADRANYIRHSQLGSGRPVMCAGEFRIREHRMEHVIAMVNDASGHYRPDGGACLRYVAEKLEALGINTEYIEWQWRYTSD
Text: as §1, §2

[5] = target: T5, IPD082Hd-2, C-terminal fragment of homolog IPD082Hd (Pseudomonas corrugata)
T5 chain: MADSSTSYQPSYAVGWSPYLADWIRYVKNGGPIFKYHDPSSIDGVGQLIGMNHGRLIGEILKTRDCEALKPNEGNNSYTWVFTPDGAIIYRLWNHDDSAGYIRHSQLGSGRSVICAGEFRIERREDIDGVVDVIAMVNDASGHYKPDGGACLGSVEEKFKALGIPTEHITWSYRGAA
Text: as §1, §2

[6] = target: T6, IPD082Ie-2, C-terminal fragment of homolog IPD082Ie (Pseudomonas agarici)
T6 chain: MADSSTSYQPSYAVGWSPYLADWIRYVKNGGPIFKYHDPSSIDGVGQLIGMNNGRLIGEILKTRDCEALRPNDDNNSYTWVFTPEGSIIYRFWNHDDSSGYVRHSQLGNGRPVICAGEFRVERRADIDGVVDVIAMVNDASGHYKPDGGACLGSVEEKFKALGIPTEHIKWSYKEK
Text: as §1, §2

Measured: binding result

B1: IPD082Aa-1, N-terminal region of IPD082Aa (pETDuet-1 construct, N-6 His) (other)
chain: MQTTVSETLVSGSDPRLQVSMGNETANGRWDNPYAIQFTYSIAGRQFFYGQNLKTHYWFIQELLPGGKMGQETANGRWDNPYAVQFAFSVGGRQFFYGQNLETNYWFIQELLAGGKMGQETANGRWNNPYASQFAFSVGGRQFFYGQNLKTNYWFIQELLAGGKMGQETANGTLDGPFAVQFPFSVGGSQYFYGQNIKDRSWFIKELLAGGKVGKTTASGRWDNAYAVQFAYPAEQYGRQYFYGQNLDTNYWFVQELLPGGAMGEEIMNGRWGNPYATQFAYEQGGISYFYGQNQSSNYWFIQELLSDTEYTVRRLPLLDYSSSTSAAQQSAPGVCL
notes: Co-expressed in pETDuet-1 with untagged C-terminal fragments of IPD082 homologs; not shown: N-terminal 6xHis tag of the pETDuet-1 vector ('N-6 His for -1')
binds: all assays above
